Measured values taken from paper PMC2603606.
One block for each substance: values may come before it.

Assays:
Assay in all cases: crystal structure
[1] = target: NITR10 (D50N) V region protein (channel catfish (Ictalurus punctatus))
[2] = target: NITR10 V region protein (novel immune-type receptor 10, Ig V domain) (channel catfish (Ictalurus punctatus))
[3] = target: NITR11 (N50D) V region protein (channel catfish (Ictalurus punctatus))
[4] = target: NITR11 V domain and membrane proximal stalk region, disulfide-linked homodimer (channel catfish (Ictalurus punctatus))
[5] = target: NITR11 V region protein (novel immune-type receptor 11, Ig V domain) (channel catfish (Ictalurus punctatus))

Substance: NITR10 V region protein (novel immune-type receptor 10, Ig V domain) (domain or fragment)
- stoichiometry N [2]: 2

Substance: NITR11 (N50D) V region protein (domain or fragment)
- stoichiometry N [3]: 2

The remaining lines, values ahead:

- stoichiometry N [1]: 2
Substance: NITR10 (D50N) V region protein (domain or fragment)

- stoichiometry N [4]: 2
Substance: NITR11 V domain and membrane proximal stalk region, disulfide-linked homodimer (domain or fragment)

- stoichiometry N [5]: 2
Substance: NITR11 V region protein (novel immune-type receptor 11, Ig V domain) (domain or fragment)
